The results in this text go back to patent US20230174609A1, “EXTENDED TIME ACTION ACYLATED INSULIN COMPOUNDS” (Eli Lilly and Company, priority 2020, published 2023).

The target in test [1] is human insulin receptor subtype A (hIR-A) (human) (UniProt P06213). The test is described as follows: cell-based or functional assay.
The target in test [2] is human insulin receptor subtype B (hIR-B) containing a C-terminal C9 tag (human) (UniProt P06213). Briefly: cell-based or functional assay.
The target is the same in test [3]. The test is described as follows: SPA competitive radioligand binding, hIR-B membranes, 0.1% BSA.
The target is the same in test [4]. The test is described as follows: SPA competitive radioligand binding, hIR-B membranes, 0.1% HSA.
Test [5] has the same target. The test is described as follows: SPA competitive radioligand binding, hIR-B membranes, 0.001% NP-40.

“Example 1 (A14E, B16H, B25H, desB30 human insulin acylated at Lys B29 with HO2C-(CH2)18-CO-γGlu-γGlu-γGlu-Lys-Gly-) (ligand)”: in test [1], the receptor tyrosine auto-phosphorylation in HEK293 cells, ELISA, EC50, 0.1% BSA amounted to 2550 nM and the receptor tyrosine auto-phosphorylation in HEK293 cells, ELISA, EC50, 0.1% Casein was determined as 588 nM. The same substance had a receptor tyrosine auto-phosphorylation in HEK293 cells, ELISA, EC50, 0.1% BSA in test [2] of 1560 nM.

In the case of “Example 2 (A14E, B16H, B25H, desB30 human insulin acylated at Lys B29 with HO2C-(CH2)18-CO-γGlu-γGlu-γGlu-Lys-(2-[2-(2-aminoethoxy)ethoxy]acetic acid)-) (ligand)”, in test [1], the receptor tyrosine auto-phosphorylation in HEK293 cells, ELISA, EC50, 0.1% BSA stood at 3040 nM and the receptor tyrosine auto-phosphorylation in HEK293 cells, ELISA, EC50, 0.1% Casein was 478 nM. The same substance gave a receptor tyrosine auto-phosphorylation in HEK293 cells, ELISA, EC50, 0.1% BSA in test [2] of 1790 nM.

On to “Example 3 (A14E, B16H, B25H, desB30 human insulin acylated at Lys B29 with HO2C-(CH2)18-CO-γGlu-γGlu-γGlu-εLys-Gly-) (ligand)”, for which, in test [1], the receptor tyrosine auto-phosphorylation in HEK293 cells, ELISA, EC50, 0.1% BSA amounted to 3180 nM and the receptor tyrosine auto-phosphorylation in HEK293 cells, ELISA, EC50, 0.1% Casein amounted to 627 nM. In test [2], the receptor tyrosine auto-phosphorylation in HEK293 cells, ELISA, EC50, 0.1% BSA was determined as 1220 nM and the receptor tyrosine auto-phosphorylation in HEK293 cells, ELISA, EC50, 0.1% Casein turned out to be 183 nM.

“insulin-like growth factor 1 (IGF-1) (from UniProt P05019 49-118) (ligand)”: the Ki worked out at 67.3 nM in test [3], 54.3 nM in test [4] and 86.1 nM in test [5]. Further, in test [2], the receptor tyrosine auto-phosphorylation in HEK293 cells, ELISA, EC50, 0.1% BSA amounted to 771 nM. The receptor tyrosine auto-phosphorylation in HEK293 cells, ELISA, EC50, 0.1% Casein in test [2] was determined as 577 nM.

The Ki is a dissociation constant, usually derived from enzyme kinetics or from competition with a known ligand.
